Data reported in article PMC9482650, “Quantitative fragmentomics allow affinity mapping of interactomes” (Nature Communications, 2022).

Experiments:
Test in all cases: holdup assay
Set-up in all cases: key: below the threshold = too weak to quantify, mostly under pKd 3.1 to 4
O00560 = conditions: plain residues with an end cap or a label only (N-terminal biotin on a linker: ttds)
Q9NR12 = conditions: plain residues with an end cap or a label only (N-terminal biotin on a linker: ttds)
Q6ZWJ1 = conditions: plain residues with an end cap or a label only (N-terminal biotin on a linker: ttds)
Q96FS4 = conditions: plain residues with an end cap or a label only (N-terminal biotin on a linker: ttds)
Q96HC4 = conditions: plain residues with an end cap or a label only (N-terminal biotin on a linker: ttds)
Q13368 = conditions: plain residues with an end cap or a label only (N-terminal biotin on a linker: ttds)
Q5TCQ9 = conditions: plain residues with an end cap or a label only (N-terminal biotin on a linker: ttds)
Q9P227 = conditions: plain residues with an end cap or a label only (N-terminal biotin on a linker: ttds)
O75970 = conditions: plain residues with an end cap or a label only (N-terminal biotin on a linker: ttds)
O43166 = conditions: plain residues with an end cap or a label only (N-terminal biotin on a linker: ttds)
O00233 = conditions: plain residues with an end cap or a label only (N-terminal biotin on a linker: ttds)
Q9H190 = conditions: plain residues with an end cap or a label only (N-terminal biotin on a linker: ttds)
Q8IUC4 = conditions: plain residues with an end cap or a label only (N-terminal biotin on a linker: ttds)
Q92614 = conditions: plain residues with an end cap or a label only (N-terminal biotin on a linker: ttds)
Q13009 = conditions: plain residues with an end cap or a label only (N-terminal biotin on a linker: ttds)
Q96SB3 = conditions: plain residues with an end cap or a label only (N-terminal biotin on a linker: ttds)
O60759 = conditions: plain residues with an end cap or a label only (N-terminal biotin on a linker: ttds)
Q9ULJ8 = conditions: plain residues with an end cap or a label only (N-terminal biotin on a linker: ttds)
Q96JY6 = conditions: plain residues with an end cap or a label only (N-terminal biotin on a linker: ttds)
Q8TDM6 = conditions: plain residues with an end cap or a label only (N-terminal biotin on a linker: ttds)
Q9NPB6 = conditions: plain residues with an end cap or a label only (N-terminal biotin on a linker: ttds)
Q70Z35 = conditions: plain residues with an end cap or a label only (N-terminal biotin on a linker: ttds)
Q9UMS6 = conditions: plain residues with an end cap or a label only (N-terminal biotin on a linker: ttds)
Q8TB45 = conditions: plain residues with an end cap or a label only (N-terminal biotin on a linker: ttds)
Q96JB8 = conditions: plain residues with an end cap or a label only (N-terminal biotin on a linker: ttds)
Q12923 = conditions: plain residues with an end cap or a label only (N-terminal biotin on a linker: ttds)
O15021 = conditions: plain residues with an end cap or a label only (N-terminal biotin on a linker: ttds)
Q9C0E4 = conditions: plain residues with an end cap or a label only (N-terminal biotin on a linker: ttds)
Q8TEW0 = conditions: plain residues with an end cap or a label only (N-terminal biotin on a linker: ttds)
LNX1_4, Q8TBB1 = target: LNX1_4, Q8TBB1
LNX2_1, Q8N448 = target: T1, LNX2_1, Q8N448
T1 sequence (Q8N448 228-328, limits assumed, looked up): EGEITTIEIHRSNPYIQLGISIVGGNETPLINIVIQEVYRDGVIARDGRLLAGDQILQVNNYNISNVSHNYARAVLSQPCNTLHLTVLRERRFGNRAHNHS

[1] = plain residues with an end cap or a label only (N-terminal biotin on a linker: none)
[2] = plain residues with an end cap or a label only (N-terminal biotin on a linker: ttds)

LNX1_4, Q8TBB1, sequence (Q8TBB1 631-726): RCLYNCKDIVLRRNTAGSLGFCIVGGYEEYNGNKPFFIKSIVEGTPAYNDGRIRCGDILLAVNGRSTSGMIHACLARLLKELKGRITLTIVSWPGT

| Binder | pKd (O00560) | pKd (Q9NR12) | pKd (Q6ZWJ1) | pKd (Q96FS4) | pKd (Q96HC4) | pKd (Q13368) | pKd (Q5TCQ9) | pKd (Q9P227) | pKd (O75970) | pKd (O43166) | pKd (O00233) | pKd (Q9H190) | pKd (Q8IUC4) | pKd (Q92614) | pKd (Q13009) | pKd (Q96SB3) | pKd (O60759) | pKd (Q9ULJ8) | pKd (Q96JY6) | pKd (Q9NPB6) | also measured |
| --- | --- | --- | --- | --- | --- | --- | --- | --- | --- | --- | --- | --- | --- | --- | --- | --- | --- | --- | --- | --- | --- |
| RHTTSTETAV [HPV30-E6, P36809] | below the threshold | below the threshold | below the threshold | below the threshold | below the threshold | below the threshold | below the threshold | below the threshold | below the threshold | below the threshold | below the threshold | below the threshold | below the threshold | below the threshold | below the threshold | below the threshold | below the threshold | below the threshold | below the threshold | below the threshold | pKd (Q8TDM6): below the threshold; pKd (Q70Z35): below the threshold; pKd (Q9UMS6): below the threshold; pKd (Q8TB45): below the threshold; pKd (Q96JB8): below the threshold; pKd (Q12923): below the threshold; pKd (O15021): below the threshold; pKd (Q9C0E4): below the threshold; pKd (Q8TEW0): below the threshold |
| QRQARSETLV [HPV59-E6, Q81964] | below the threshold | below the threshold | below the threshold | below the threshold | below the threshold | below the threshold | below the threshold | below the threshold | below the threshold | below the threshold | below the threshold | below the threshold | below the threshold | below the threshold | below the threshold | below the threshold | below the threshold | below the threshold | below the threshold | below the threshold | pKd (Q8TDM6): below the threshold; pKd (Q70Z35): below the threshold; pKd (Q9UMS6): below the threshold; pKd (Q8TB45): below the threshold; pKd (Q96JB8): below the threshold; pKd (Q12923): below the threshold; pKd (O15021): below the threshold; pKd (Q9C0E4): below the threshold; pKd (Q8TEW0): below the threshold |
| NLNSSRVPDLLV [SARS-CoV2-E, P0DTC4] | – | – | – | – | – | – | – | – | – | – | – | – | – | – | – | – | – | – | – | – | pKd (LNX1_4, Q8TBB1; [1]): below the threshold; pKd (LNX2_1, Q8N448; [1]): below the threshold |
| RPLPRKVSQL [DOCK4, Q8N1I0] | below the threshold | below the threshold | below the threshold | below the threshold | below the threshold | below the threshold | below the threshold | below the threshold | below the threshold | below the threshold | below the threshold | below the threshold | below the threshold | below the threshold | below the threshold | below the threshold | below the threshold | below the threshold | below the threshold | below the threshold | pKd (Q70Z35): below the threshold; pKd (Q9UMS6): below the threshold; pKd (Q96JB8): below the threshold; pKd (Q12923): below the threshold; pKd (O15021): below the threshold; pKd (Q9C0E4): below the threshold; pKd (Q8TEW0): below the threshold |
| SKPTRRETEV [HPV35-E6, P27228] | – | – | – | – | – | – | – | – | – | – | – | – | – | – | – | – | – | – | – | – | pKd (LNX1_4, Q8TBB1; [2]): 3.49; pKd (LNX2_1, Q8N448; [2]): below the threshold |
| RLQRRRETQV [HPV18-E6, P06463] | – | – | – | – | – | – | – | – | – | – | – | – | – | – | – | – | – | – | – | – | pKd (LNX1_4, Q8TBB1; [2]): 4.03; pKd (LNX2_1, Q8N448; [2]): below the threshold |
| SSLQSLETSV [ATP2B4, P23634] | below the threshold | below the threshold | below the threshold | below the threshold | below the threshold | below the threshold | below the threshold | below the threshold | below the threshold | below the threshold | below the threshold | below the threshold | below the threshold | below the threshold | below the threshold | below the threshold | below the threshold | below the threshold | below the threshold | below the threshold | pKd (Q8TDM6): below the threshold; pKd (Q70Z35): below the threshold; pKd (Q9UMS6): below the threshold; pKd (Q8TB45): below the threshold; pKd (Q96JB8): below the threshold; pKd (Q12923): below the threshold; pKd (O15021): below the threshold; pKd (Q9C0E4): below the threshold; pKd (Q8TEW0): below the threshold |
| RLPKIKETTV [FRMPD4, Q14CM0] | below the threshold | below the threshold | below the threshold | below the threshold | below the threshold | below the threshold | below the threshold | below the threshold | below the threshold | below the threshold | below the threshold | below the threshold | below the threshold | below the threshold | below the threshold | below the threshold | below the threshold | below the threshold | below the threshold | below the threshold | pKd (Q70Z35): below the threshold; pKd (Q9UMS6): below the threshold; pKd (Q96JB8): below the threshold; pKd (Q12923): below the threshold; pKd (O15021): below the threshold; pKd (Q9C0E4): below the threshold; pKd (Q8TEW0): below the threshold |
